Results published in US20120178908A1 (Novo Nordisk, published 2012).
Positions count from the first letter of the chain named. Names may count otherwise. Values belong to the binder of their own block, whether it stands above or below them.

Legend:
hTLT-1 ECD-HPC4 M91A = molecular target: T1, hTLT-1 ECD-HPC4 M91A (human, UniProt Q86YW5 16-162); assay: SPR (ProteOn), mAb captured by anti-hFc, 100 nM mutant, signal 10 s after injection normalised to captured mAb
T1 construct: As m27; also called Ala mutant 24
T1 chain: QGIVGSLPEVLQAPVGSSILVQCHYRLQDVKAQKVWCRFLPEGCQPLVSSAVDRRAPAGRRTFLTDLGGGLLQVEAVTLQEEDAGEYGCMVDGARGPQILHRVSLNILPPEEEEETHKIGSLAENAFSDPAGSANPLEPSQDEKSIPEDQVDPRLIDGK
Description: (§1) Each anti-body was diluted in 10 mM sodium acetate pH 5.0 to a concentration of […], and was immobilized to an individual flow cell at 30 μl/min for 240s. The antibodies were immobilized to flow cells A1-A6 (horizontal direction). After immobilization, the active sites on the flow cell were blocked with 1 M ethanolamine. The final immobilization level of capture antibody typically ranged from approximately 9,000 to 10,000 RU in one experiment. Capture of the anti-TLT1 antibodies 0197-0000-0023, 0197-0000-0051, 0197-0000-0061 and 0197-0000-0062 was conducted by diluting to […] into HBS-EP buffer (10 mM HEPES, 150 mM NaCl, 3 mM EDTA, 0.05% surfactant P20, pH 7.4) and injected at 30 μl/min for 60s in vertical direction, creating interspot reference points with only anti-human Fc antibodies. The final capture level of test antibodies typically ranged from approximately 200 to 300 RU in one experiment. Binding of wt or Ala mutant hTLT-1 ECD-HPC4 protein was conducted by injecting over parallel flow cells in horizontal direction to allow for comparative analyses of binding to different captured anti-TLT1 antibodies relative to binding to the interspot references. Each hTLT-1 ECD-HPC4 protein was diluted to 100 nM, based on the calculated average Mw, into HBS-EP buffer and injected at 30 μl/min for 240s. The GLM chip was regenerated after each injection cycle of analyte via one 18 s injection of 1 M Formic acid followed by a 18s injection of 50 mM NaOH at 100 μl/min. This regeneration step removed the anti-TLT1 antibody and any bound TLT1 from the immobilized capture antibody surface, and allowed for the subsequent binding of the next test sample pair.
(§2) Data analysis was performed using the ProteOn Manager™ Software. No significant non-specific binding to the interspot control surfaces was observed. Binding curves were processed by double referencing (subtraction of interspot control surface signals as well as blank buffer injections over captured anti-TLT1 antibodies). This allowed correction for instrument noise, bulk shift and drift during sample injections. Binding signal at 10 s after stop of analyte injection was normalized to level of captured anti-TLT1 antibody and presented as binding relative to wt hTLT-1 ECD-HPC4 protein.

hTLT-1 ECD-HPC4 F54A = molecular target: T2, hTLT-1 ECD-HPC4 F54A (human, UniProt Q86YW5 16-162); assay: as above
T2 construct: As m27; also called Ala mutant 12
T2 chain: T1 chain with F39A, A76M
Description: as §1, §2

hTLT-1 ECD-HPC4 R117A = molecular target: T3, hTLT-1 ECD-HPC4 R117A (human, UniProt Q86YW5 16-162); assay: as above
T3 construct: As m27; also called Ala mutant 32
T3 chain: T1 chain with A76M, R102A
Description: as §1, §2

hTLT-1 ECD-HPC4 S119A = molecular target: T4, hTLT-1 ECD-HPC4 S119A (human, UniProt Q86YW5 16-162); assay: as above
T4 construct: As m27; also called Ala mutant 33
T4 chain: T1 chain with A76M, S104A
Description: as §1, §2

[1] = molecular target: T5, TLT1 (human TLT-1, reagent of the SPR studies, source NN) (human, UniProt Q86YW5 16-162, limits assumed); assay: SPR (Biacore), mAb immobilised directly on CM5, TLT1 as analyte
T5 sequence: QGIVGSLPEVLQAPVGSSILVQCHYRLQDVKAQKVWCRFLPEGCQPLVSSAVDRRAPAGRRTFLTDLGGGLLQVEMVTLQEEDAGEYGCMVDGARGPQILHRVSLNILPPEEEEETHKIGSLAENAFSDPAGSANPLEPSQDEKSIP
Description: The mAbs of interest were either immobilized directly to a CM5 chip or by capture via a human Fc capture mAb immobilized to a CM5 chip.
Direct capture: The TLT-1 mAbs were immobilised to a level of approx 500-1000 RU on a CM5 chip (50 μg/ml diluted in Na-acetate, pH 4.0) using the standard procedure recommended by the supplier. Two-fold dilutions of TLT1 from 200 nM to 0.2 nM were tested for binding to the mABs. Running and dilution buffer: 10 mM HEPES, 150 mM, 0.005% p20, pH 7.4. Regeneration was obtained by 10 mM Glycine, pH 1.7.

hTLT-1 ECD-HPC4 Q43A = molecular target: T6, hTLT-1 ECD-HPC4 Q43A (human, UniProt Q86YW5 16-162); assay: SPR (ProteOn), mAb captured by anti-hFc, 100 nM mutant, signal 10 s after injection normalised to captured mAb
T6 construct: As m27; also called Ala mutant 9
T6 chain: T1 chain with Q28A, A76M
Description: as §1, §2

hTLT-1 ECD-HPC4 L42A = molecular target: T7, hTLT-1 ECD-HPC4 L42A (human, UniProt Q86YW5 16-162); assay: as above
T7 construct: As m27; also called Ala mutant 8
T7 chain: T1 chain with L27A, A76M
Description: as §1, §2

hTLT-1 ECD-HPC4 R110A = molecular target: T8, hTLT-1 ECD-HPC4 R110A (human, UniProt Q86YW5 16-162); assay: as above
T8 construct: As m27; also called Ala mutant 30
T8 chain: T1 chain with A76M, R95A
Description: as §1, §2

hTLT-1 ECD-HPC4 K46A = molecular target: T9, hTLT-1 ECD-HPC4 K46A (human, UniProt Q86YW5 16-162); assay: as above
T9 construct: As m27; also called Ala mutant 10
T9 chain: T1 chain with K31A, A76M
Description: as §1, §2

hTLT-1 ECD-HPC4 H116A = molecular target: T10, hTLT-1 ECD-HPC4 H116A (human, UniProt Q86YW5 16-162); assay: as above
T10 construct: As m27; also called Ala mutant 31
T10 chain: T1 chain with A76M, H101A
Description: as §1, §2

hTLT-1 ECD-HPC4 R41A = molecular target: T11, hTLT-1 ECD-HPC4 R41A (human, UniProt Q86YW5 16-162); assay: as above
T11 construct: As m27; also called Ala mutant 7
T11 chain: T1 chain with R26A, A76M
Description: as §1, §2

binding relative to wt hTLT-1 ECD-HPC4 (hTLT-1 ECD-HPC4 M91A): < 0.2 fraction of wt binding | binding relative to wt hTLT-1 ECD-HPC4 (hTLT-1 ECD-HPC4 F54A): < 0.4 fraction of wt binding | binding relative to wt hTLT-1 ECD-HPC4 (hTLT-1 ECD-HPC4 R117A): < 0.2 fraction of wt binding | binding relative to wt hTLT-1 ECD-HPC4 (hTLT-1 ECD-HPC4 S119A): < 0.6 fraction of wt binding | Kd [1]: 19.3 nM | koff [1]: 0.00472 s⁻¹ | kon [1]: 245000 M⁻¹ s⁻¹
B1: mAb 0051 HC2; LC2 (antibody, V domains shown)
VH: QVQLEQSGAELVRPGVSVKISCKGSGYTFTDYSMHWVKQSHAKSLEWIGVISTYYGDVRYNQKFKGKATMTVDKSSSTAYMALARLTSEDSAIYYCARAPMITTGAWFAYWGQGTLVTVSA
VL: SIVMTQTPKFLLVSAGDRVTITCKASQSVSNDVAWYQQKPGQSPKLLINYASSRYTGIPDRFTGSGYGTDFTFTISTVQAEDLAVYFCQQDYSSPYTFGGGTKLEIER
notes: also called 0197-0000-0051

binding relative to wt hTLT-1 ECD-HPC4 (hTLT-1 ECD-HPC4 Q43A): < 0.2 fraction of wt binding | binding relative to wt hTLT-1 ECD-HPC4 (hTLT-1 ECD-HPC4 L42A): < 0.2 fraction of wt binding | binding relative to wt hTLT-1 ECD-HPC4 (hTLT-1 ECD-HPC4 M91A): < 0.4 fraction of wt binding | binding relative to wt hTLT-1 ECD-HPC4 (hTLT-1 ECD-HPC4 R110A): < 0.2 fraction of wt binding | binding relative to wt hTLT-1 ECD-HPC4 (hTLT-1 ECD-HPC4 K46A): < 0.2 fraction of wt binding | Kd [1]: 4.36 nM | koff [1]: 0.00125 s⁻¹ | kon [1]: 287000 M⁻¹ s⁻¹
B2: mAb 0023 HC2; LC2 (antibody, V domains shown)
VH: EVRLVESGGGLVQPGGSLKLSCATSGFTFSDYFMYWIRQTPEKRLEWVAYISNGGDSSSYPDTVKGRFTISRDNAKNTLYLQMSRLKSEDTAMYYCATNKNWDDYYDMDYWGQGTSVTVSS
VL: DIVVSQSPSSLAVSAGEKVTMSCKSSQSLLNSRTRKNYLAWYQQKPGQSPKLLIYWASTRESGVPDRFTGSGSGTDFTLTISSVQAEDLAVYYCKQSYNLLTFGAGTKLELKR
notes: also called 0197-0000-0023

binding relative to wt hTLT-1 ECD-HPC4 (hTLT-1 ECD-HPC4 H116A): < 0.6 fraction of wt binding | binding relative to wt hTLT-1 ECD-HPC4 (hTLT-1 ECD-HPC4 Q43A): < 0.4 fraction of wt binding | binding relative to wt hTLT-1 ECD-HPC4 (hTLT-1 ECD-HPC4 L42A): < 0.6 fraction of wt binding | binding relative to wt hTLT-1 ECD-HPC4 (hTLT-1 ECD-HPC4 M91A): < 0.4 fraction of wt binding | binding relative to wt hTLT-1 ECD-HPC4 (hTLT-1 ECD-HPC4 F54A): < 0.6 fraction of wt binding | binding relative to wt hTLT-1 ECD-HPC4 (hTLT-1 ECD-HPC4 R110A): < 0.2 fraction of wt binding | binding relative to wt hTLT-1 ECD-HPC4 (hTLT-1 ECD-HPC4 R41A): < 0.2 fraction of wt binding | Kd [1]: 4.12 nM | koff [1]: 0.00134 s⁻¹ | kon [1]: 326000 M⁻¹ s⁻¹
B3: mAb 0062 HC2; LC2 (antibody, V domains shown)
VH: QVQLQQSGAEPMKPGASVKISCKATGYTFSSHWIEWIKQRPGHGLEWIGEILPGSGNTNYNEKFKGKATFTADTSSNTAYMQLSSLTSEDSAVYYCARGYYGLNYDWYFDVWGAGTTVTVSS
VL: DIQMTQTTSSLSASLGDRVTISCRASQDISNYLNWYQQKPDGTVKLLIFYTSRLHSGVPSRFSGSGSGTDYSLTISNLEPEDIATYYCQQDTKLPYTFGGGTKLEMKR
notes: also called 0197-0000-0062; 0052HC.C91Y + 0052LC
